Laboratory results: paper PMC8887629

Molecular target: full-length human LRRK2 (leucine-rich repeat kinase 2) (human) (UniProt Q5S007)
Assay: cryo-EM structure

full-length human LRRK2 (leucine-rich repeat kinase 2) (from UniProt Q5S007 1-2527) (enzyme)
stoichiometry N: 2
